Results as given in the supplement of paper PMC10065799, “High-throughput profiling of sequence recognition by tyrosine kinases and SH2 domains using bacterial peptide display” (eLife, 2023).

Columns and labels:
Grb2 SH2 = Grb2 SH2 (UniProt P62993); assay: SH2 binding enrichment of the phosphorylated peptide, bacterial display (enrichment ratio); higher = better substrate or ligand; peptides without Tyr show the background
SHP2-C SH2 = assay: as above
c-Src SH2 = assay: as above
c-Src = assay: phosphorylation enrichment, bacterial display (enrichment ratio); higher = better substrate or ligand; peptides without Tyr show the background
FGFR3 = FGFR3 (UniProt P22607); assay: as above
Fes = Fes (UniProt P07332); assay: as above
c-Abl (mouse) = assay: as above
FGFR1 = FGFR1 (UniProt P11362); assay: as above
Fyn = Fyn (UniProt P06241); assay: as above
Jak2 = Jak2 (UniProt O60674); assay: as above
Fer (mouse) = assay: as above
MERTK = MERTK (UniProt Q12866); assay: as above
Hck = Hck (UniProt P08631); assay: as above
EPHB2 = EPHB2 (UniProt P29323); assay: as above
AncSZ = assay: as above
EPHB1 = EPHB1 (UniProt P54762); assay: as above
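For SH2 binding enrichment of the phosphorylated peptide, bacterial display in this document: peptide library displayed on the E. coli surface as eCPX fusions, selected cells deep-sequenced, score is each peptide's frequency after selection divided by its frequency in the input.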
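For phosphorylation enrichment, bacterial display in this document: 11-residue human phosphosite peptides and single-mutation variants displayed on the E. coli surface, counted by deep sequencing, each peptide's frequency after selection divided by its frequency in the unselected input library; frequency after pTyr selection over input frequency; kinase dosed for 20-30% of maximal phosphorylation in three min.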

Chain of MERTK (Q12866 whole entry, looked up): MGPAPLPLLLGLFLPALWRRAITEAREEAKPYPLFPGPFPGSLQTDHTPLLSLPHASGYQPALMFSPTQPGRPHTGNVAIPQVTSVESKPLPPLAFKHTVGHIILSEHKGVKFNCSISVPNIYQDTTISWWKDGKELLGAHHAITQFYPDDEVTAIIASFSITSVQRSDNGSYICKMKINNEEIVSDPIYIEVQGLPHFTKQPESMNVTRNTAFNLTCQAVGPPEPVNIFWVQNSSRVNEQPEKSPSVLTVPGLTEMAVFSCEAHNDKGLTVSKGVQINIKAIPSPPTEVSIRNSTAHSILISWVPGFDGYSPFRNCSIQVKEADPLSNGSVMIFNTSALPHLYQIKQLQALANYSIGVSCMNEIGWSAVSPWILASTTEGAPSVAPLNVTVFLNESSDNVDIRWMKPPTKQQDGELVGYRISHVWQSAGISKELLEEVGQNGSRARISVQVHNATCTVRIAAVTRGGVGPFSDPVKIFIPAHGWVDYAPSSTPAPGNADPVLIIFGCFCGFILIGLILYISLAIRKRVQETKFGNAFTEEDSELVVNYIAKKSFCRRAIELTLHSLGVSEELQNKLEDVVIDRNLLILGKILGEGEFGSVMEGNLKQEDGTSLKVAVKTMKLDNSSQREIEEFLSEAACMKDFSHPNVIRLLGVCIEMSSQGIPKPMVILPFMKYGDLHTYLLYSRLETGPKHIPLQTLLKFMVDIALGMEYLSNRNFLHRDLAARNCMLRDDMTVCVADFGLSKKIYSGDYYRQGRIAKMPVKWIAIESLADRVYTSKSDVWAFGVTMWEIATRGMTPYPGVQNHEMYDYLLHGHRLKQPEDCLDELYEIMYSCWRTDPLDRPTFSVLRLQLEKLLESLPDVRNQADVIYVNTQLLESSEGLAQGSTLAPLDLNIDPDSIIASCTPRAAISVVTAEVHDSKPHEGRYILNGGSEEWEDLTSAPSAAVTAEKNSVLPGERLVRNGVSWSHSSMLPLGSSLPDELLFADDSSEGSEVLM
Chain of EPHB2 (P29323 whole entry, looked up): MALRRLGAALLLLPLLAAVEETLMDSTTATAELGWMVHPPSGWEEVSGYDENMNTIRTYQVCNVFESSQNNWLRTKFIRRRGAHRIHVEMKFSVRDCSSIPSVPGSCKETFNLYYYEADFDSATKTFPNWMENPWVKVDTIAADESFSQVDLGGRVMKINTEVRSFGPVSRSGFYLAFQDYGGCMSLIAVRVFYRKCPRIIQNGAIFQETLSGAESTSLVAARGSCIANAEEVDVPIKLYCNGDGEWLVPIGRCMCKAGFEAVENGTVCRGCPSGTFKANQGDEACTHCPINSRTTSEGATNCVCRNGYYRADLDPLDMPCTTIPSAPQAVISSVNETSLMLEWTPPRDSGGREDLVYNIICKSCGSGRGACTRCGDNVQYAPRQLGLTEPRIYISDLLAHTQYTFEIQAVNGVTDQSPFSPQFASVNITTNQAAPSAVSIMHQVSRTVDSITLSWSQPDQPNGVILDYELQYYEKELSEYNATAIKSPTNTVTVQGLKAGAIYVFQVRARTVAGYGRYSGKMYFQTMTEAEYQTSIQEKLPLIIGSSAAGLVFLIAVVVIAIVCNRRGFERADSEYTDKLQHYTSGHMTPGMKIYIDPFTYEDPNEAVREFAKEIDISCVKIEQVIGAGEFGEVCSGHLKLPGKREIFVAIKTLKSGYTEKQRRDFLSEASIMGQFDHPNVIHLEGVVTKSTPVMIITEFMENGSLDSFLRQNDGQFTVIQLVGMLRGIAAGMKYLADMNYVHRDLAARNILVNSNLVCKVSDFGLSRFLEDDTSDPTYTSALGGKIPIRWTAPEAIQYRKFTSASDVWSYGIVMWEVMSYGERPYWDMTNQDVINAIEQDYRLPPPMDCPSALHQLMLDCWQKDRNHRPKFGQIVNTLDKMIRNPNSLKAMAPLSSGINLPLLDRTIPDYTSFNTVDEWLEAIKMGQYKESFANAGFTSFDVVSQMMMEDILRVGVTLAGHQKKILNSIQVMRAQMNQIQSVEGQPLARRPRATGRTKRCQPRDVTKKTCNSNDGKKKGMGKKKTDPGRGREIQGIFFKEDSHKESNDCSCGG
Chain of FGFR3 (P22607 whole entry, looked up): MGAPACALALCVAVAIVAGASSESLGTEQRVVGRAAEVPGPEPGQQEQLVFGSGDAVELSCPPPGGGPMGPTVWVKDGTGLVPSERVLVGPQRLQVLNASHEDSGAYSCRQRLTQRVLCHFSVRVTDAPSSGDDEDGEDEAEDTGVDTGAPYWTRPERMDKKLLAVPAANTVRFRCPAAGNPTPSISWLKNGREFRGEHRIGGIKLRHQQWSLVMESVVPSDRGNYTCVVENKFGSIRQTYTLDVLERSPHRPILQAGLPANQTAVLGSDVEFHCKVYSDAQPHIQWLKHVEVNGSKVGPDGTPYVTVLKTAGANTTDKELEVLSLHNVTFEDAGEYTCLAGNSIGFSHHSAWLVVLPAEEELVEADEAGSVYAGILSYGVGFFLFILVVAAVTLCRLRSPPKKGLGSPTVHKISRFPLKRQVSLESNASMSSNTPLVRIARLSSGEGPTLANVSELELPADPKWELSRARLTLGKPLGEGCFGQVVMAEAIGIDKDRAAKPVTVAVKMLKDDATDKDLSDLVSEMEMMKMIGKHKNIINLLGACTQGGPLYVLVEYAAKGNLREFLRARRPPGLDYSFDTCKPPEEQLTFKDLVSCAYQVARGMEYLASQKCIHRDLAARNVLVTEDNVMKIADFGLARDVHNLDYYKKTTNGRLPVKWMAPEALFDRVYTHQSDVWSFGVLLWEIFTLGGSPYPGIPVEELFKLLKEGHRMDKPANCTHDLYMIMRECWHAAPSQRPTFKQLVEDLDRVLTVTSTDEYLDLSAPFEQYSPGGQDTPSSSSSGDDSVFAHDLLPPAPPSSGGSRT
Chain of EPHB1 (P54762 whole entry, looked up, the tested form may be a part): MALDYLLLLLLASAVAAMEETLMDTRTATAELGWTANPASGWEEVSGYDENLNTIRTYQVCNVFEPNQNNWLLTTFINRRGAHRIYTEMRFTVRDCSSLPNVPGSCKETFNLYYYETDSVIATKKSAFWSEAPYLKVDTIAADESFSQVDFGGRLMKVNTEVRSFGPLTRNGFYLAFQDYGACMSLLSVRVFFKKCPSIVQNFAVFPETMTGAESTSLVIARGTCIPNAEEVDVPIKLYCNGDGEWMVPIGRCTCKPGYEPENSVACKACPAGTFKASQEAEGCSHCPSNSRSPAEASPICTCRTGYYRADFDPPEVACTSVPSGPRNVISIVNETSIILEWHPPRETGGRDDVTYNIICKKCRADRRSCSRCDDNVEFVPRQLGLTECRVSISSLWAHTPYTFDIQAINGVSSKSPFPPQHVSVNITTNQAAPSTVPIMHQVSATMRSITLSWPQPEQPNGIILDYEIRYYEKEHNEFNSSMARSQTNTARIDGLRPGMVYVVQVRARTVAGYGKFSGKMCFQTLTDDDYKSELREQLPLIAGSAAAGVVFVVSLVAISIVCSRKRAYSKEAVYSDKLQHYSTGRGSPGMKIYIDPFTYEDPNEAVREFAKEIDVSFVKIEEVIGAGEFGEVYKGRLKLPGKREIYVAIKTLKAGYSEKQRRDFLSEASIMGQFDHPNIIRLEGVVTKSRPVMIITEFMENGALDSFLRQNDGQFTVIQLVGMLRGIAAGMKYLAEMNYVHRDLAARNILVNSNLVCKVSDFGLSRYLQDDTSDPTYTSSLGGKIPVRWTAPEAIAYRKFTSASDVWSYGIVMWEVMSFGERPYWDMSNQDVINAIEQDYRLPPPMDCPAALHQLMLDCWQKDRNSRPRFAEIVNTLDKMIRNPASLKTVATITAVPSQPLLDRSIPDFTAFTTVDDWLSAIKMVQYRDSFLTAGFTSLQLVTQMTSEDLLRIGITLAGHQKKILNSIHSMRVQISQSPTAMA
Chain of Grb2 SH2 (P62993 whole entry, looked up): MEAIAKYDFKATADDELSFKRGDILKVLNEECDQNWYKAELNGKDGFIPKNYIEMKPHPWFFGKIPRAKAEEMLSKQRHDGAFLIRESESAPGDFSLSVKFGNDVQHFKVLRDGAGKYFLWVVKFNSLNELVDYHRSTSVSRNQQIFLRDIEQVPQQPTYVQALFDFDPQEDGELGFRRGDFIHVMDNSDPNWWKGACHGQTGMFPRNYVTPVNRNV
Chain of Fes (P07332 whole entry, looked up): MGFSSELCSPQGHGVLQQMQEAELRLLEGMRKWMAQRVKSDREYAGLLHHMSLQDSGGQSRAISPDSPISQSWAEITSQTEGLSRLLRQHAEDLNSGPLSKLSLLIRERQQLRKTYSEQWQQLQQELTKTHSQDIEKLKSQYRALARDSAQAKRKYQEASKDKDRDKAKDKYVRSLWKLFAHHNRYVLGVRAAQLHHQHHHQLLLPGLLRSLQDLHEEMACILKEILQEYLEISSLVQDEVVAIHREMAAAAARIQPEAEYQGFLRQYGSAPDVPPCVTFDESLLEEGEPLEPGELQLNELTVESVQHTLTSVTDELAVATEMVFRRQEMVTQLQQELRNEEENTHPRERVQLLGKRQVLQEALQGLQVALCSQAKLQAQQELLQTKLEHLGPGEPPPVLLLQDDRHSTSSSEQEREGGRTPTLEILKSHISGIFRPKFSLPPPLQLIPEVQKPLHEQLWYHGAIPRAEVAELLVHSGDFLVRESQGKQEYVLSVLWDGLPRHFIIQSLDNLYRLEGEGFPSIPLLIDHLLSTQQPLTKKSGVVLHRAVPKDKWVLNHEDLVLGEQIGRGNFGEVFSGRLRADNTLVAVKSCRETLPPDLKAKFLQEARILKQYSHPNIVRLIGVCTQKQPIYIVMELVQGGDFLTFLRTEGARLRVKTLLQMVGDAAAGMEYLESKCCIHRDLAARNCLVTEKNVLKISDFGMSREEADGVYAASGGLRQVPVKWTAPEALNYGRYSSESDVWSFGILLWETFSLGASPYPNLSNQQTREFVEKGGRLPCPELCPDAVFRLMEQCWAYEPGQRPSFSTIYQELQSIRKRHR

| Sequence | SH2 binding enrichment (Grb2 SH2) | SH2 binding enrichment (SHP2-C SH2) | SH2 binding enrichment (c-Src SH2) | phosphorylation enrichment (c-Src) | phosphorylation enrichment (FGFR3) | phosphorylation enrichment (Fes) | phosphorylation enrichment (c-Abl (mouse)) | phosphorylation enrichment (FGFR1) | phosphorylation enrichment (Fyn) | phosphorylation enrichment (Jak2) | phosphorylation enrichment (Fer (mouse)) | phosphorylation enrichment (MERTK) | phosphorylation enrichment (Hck) | phosphorylation enrichment (EPHB2) | phosphorylation enrichment (AncSZ) | phosphorylation enrichment (EPHB1) |
| --- | --- | --- | --- | --- | --- | --- | --- | --- | --- | --- | --- | --- | --- | --- | --- | --- |
| PFRQWYESHFA [RPS8_Y113_YF] | 1.22 | 1.04 | 1.07 | 0.972 | 0.524 | 1.11 | 0.764 | 0.731 | 0.586 | 0.963 | 3.73 | 0.906 | 0.68 | 0.786 | 1.08 | 0.827 |
| PFSNPYENSLI [EPOR_Y489_YF] | 15.5 | 0.501 | 4.88 | 1.01 | 1.02 | 1.48 | 1.18 | 0.964 | 1.04 | 3.41 | 2.23 | 0.675 | 0.848 | 0.929 | 1.92 | 0.92 |
| PFTRNYYVWAV [CYBA_Y87_R90W] | 1.32 | 1.54 | 0.899 | 0.777 | 8.21 | 1.12 | 4.71 | 9.92 | 0.744 | 2.5 | 1.2 | 6.79 | 1.03 | 3.42 | 1.41 | 3.1 |
| PGVDIYISPNM [PADI3_Y51] | 0.728 | 0.592 | 0.366 | 0.894 | 1.11 | 1.8 | 1.68 | 1.67 | 1.02 | 1.75 | 0.814 | 0.534 | 1.38 | 0.973 | 1.64 | 1.17 |
| PHMQTYEVDPN [SDHB_Y61_L65P] | 0.974 | 0.717 | 0.555 | 1.35 | 0.761 | 1.49 | 0.932 | 0.511 | 0.586 | 1.04 | 0.758 | 0.522 | 0.791 | 0.628 | 1.19 | 0.782 |
| PLGPLYASSNP [INSR_Y992] | 0.641 | 0.709 | 0.75 | 1.35 | 0.742 | 1.65 | 1.47 | 0.683 | 1.27 | 0.941 | 1.82 | 1.49 | 4.49 | 1.01 | 0.96 | 1.14 |
| PLGVPYLDKPP [JMJD7_Y31_A28G] | 0.862 | 0.645 | 0.46 | 0.909 | 0.825 | 1.64 | 1.57 | 0.6 | 0.679 | 1.55 | 0.574 | 0.942 | 0.463 | 0.794 | 0.955 | 0.901 |
| PLRADYLIARV [HLCS_Y635] | 0.896 | 0.711 | 0.46 | 0.582 | 0.495 | 1.1 | 0.853 | 0.8 | 0.319 | 0.747 | 0.515 | 0.717 | 0.461 | 0.487 | 0.777 | 0.312 |
| PLRAYYLIARV [HLCS_Y635_D634Y] | 1.67 | 1.69 | 1.62 | 0.362 | 1.31 | 1.12 | 0.865 | 1.2 | 0.571 | 1.71 | 0.732 | 0.636 | 0.415 | 0.726 | 1.17 | 0.543 |
| PPPPAYDDMAQ [TNK2_Y635_V638M] | 0.699 | 0.543 | 1.37 | 0.526 | 0.762 | 1.04 | 0.597 | 0.492 | 0.544 | 1.14 | 0.551 | 0.675 | 0.647 | 0.632 | 1.25 | 0.441 |
| PQGVGYPPQPQ [EP300_Y2219_Q2223P] | 0.998 | 0.716 | 0.666 | 0.802 | 0.569 | 0.904 | 0.931 | 0.695 | 0.564 | 0.926 | 0.815 | 0.74 | 0.571 | 0.53 | 0.972 | 0.503 |
| PRPAGYPSTVS [CACNA1C_Y1832] | 1 | 0.621 | 0.484 | 0.735 | 0.446 | 0.493 | 0.653 | 0.333 | 0.43 | 0.55 | 0.331 | 0.363 | 0.251 | 0.413 | 0.458 | 0.327 |
| PRSRSYFSTSI [REPS2_Y462_S463F] | 1.08 | 0.906 | 0.769 | 0.677 | 0.574 | 0.791 | 0.452 | 0.457 | 0.468 | 0.635 | 0.436 | 0.496 | 0.691 | 0.797 | 0.623 | 0.478 |
| PSAEGYQDVRD [ABLIM1_Y439] | 0.812 | 0.621 | 3.8 | 0.492 | 0.699 | 1.08 | 0.688 | 0.571 | 0.689 | 0.873 | 0.634 | 0.348 | 0.545 | 0.649 | 1.15 | 0.656 |
| PSDPSYEDTRE [BMPR1A_Y467_M470T] | 1.77 | 1.52 | 1.73 | 1.14 | 1.18 | 2.73 | 1.71 | 0.813 | 0.887 | 2.37 | 0.894 | 0.827 | 1.19 | 0.883 | 1.66 | 0.765 |
| PSQRRYVYYYS [PTEN_Y174] | 1.55 | 4.7 | 2.25 | 0.872 | 0.785 | 1.08 | 1.21 | 2.08 | 0.648 | 1.13 | 0.503 | 2.42 | 0.497 | 0.459 | 0.958 | 0.57 |
| PTTKTYFPHFD [HBA1_Y43] | 0.825 | 0.951 | 0.396 | 0.576 | 0.625 | 0.929 | 0.59 | 0.595 | 0.545 | 0.572 | 0.479 | 0.553 | 0.352 | 0.396 | 0.66 | 0.374 |

| Sequence | SH2 binding enrichment (Grb2 SH2) | SH2 binding enrichment (SHP2-C SH2) | SH2 binding enrichment (c-Src SH2) | phosphorylation enrichment (c-Src) | phosphorylation enrichment (FGFR3) | phosphorylation enrichment (Fes) | phosphorylation enrichment (c-Abl (mouse)) | phosphorylation enrichment (FGFR1) | phosphorylation enrichment (Fyn) | phosphorylation enrichment (Jak2) | phosphorylation enrichment (Fer (mouse)) | phosphorylation enrichment (MERTK) | phosphorylation enrichment (Hck) | phosphorylation enrichment (EPHB2) | phosphorylation enrichment (AncSZ) | phosphorylation enrichment (EPHB1) |
| --- | --- | --- | --- | --- | --- | --- | --- | --- | --- | --- | --- | --- | --- | --- | --- | --- |
| PVGDVYKKKGL [NMNAT1_Y55_A54V] | 0.837 | 0.748 | 0.55 | 0.488 | 0.915 | 0.557 | 0.417 | 0.498 | 0.465 | 0.405 | 0.487 | 0.491 | 0.646 | 0.567 | 0.534 | 0.451 |
| PVGVLYEVKVF [PTS_Y128_K129E_YF] | 0.992 | 0.836 | 0.611 | 0.89 | 1.41 | 2.67 | 1.29 | 1.02 | 0.849 | 2.08 | 2.05 | 1.16 | 0.986 | 0.91 | 2.17 | 1.5 |
| PVKAAYQKVVA [HBB_Y131_Q128K] | 0.968 | 0.879 | 0.615 | 0.753 | 0.766 | 0.823 | 2.43 | 0.539 | 0.648 | 0.95 | 0.588 | 0.523 | 0.539 | 0.491 | 0.714 | 1.14 |
| PYAEPYADYGG [APBA1_Y187_S184A] | 0.836 | 0.695 | 7.71 | 5.47 | 1.76 | 3.07 | 1.82 | 2.13 | 1.33 | 2.47 | 0.861 | 0.853 | 1.19 | 1.4 | 2.86 | 1.16 |
| QAIDEYEKWLE [MAP9_Y603_N601D] | 0.757 | 0.805 | 0.432 | 0.479 | 1.34 | 1.41 | 0.85 | 0.515 | 0.66 | 1.46 | 0.581 | 0.996 | 0.607 | 0.716 | 1.5 | 1.06 |
| QDGYSYLSRQM [LDLR_Y847_P848L] | 0.747 | 2.11 | 8.2 | 0.464 | 0.664 | 0.94 | 0.541 | 0.995 | 0.305 | 0.784 | 0.562 | 1.26 | 0.646 | 0.467 | 0.71 | 0.517 |
| QDRTFYESVRT [SPEN_Y633_YF] | 0.816 | 2.39 | 1.97 | 1.29 | 0.686 | 1.04 | 0.717 | 0.529 | 1.21 | 0.564 | 8.88 | 1.04 | 2.43 | 0.579 | 1.1 | 0.74 |
| QEIATYRRLQE [KRT14_Y415_L419Q] | 0.702 | 1.21 | 0.475 | 0.717 | 0.512 | 0.803 | 1.1 | 0.699 | 0.578 | 1.51 | 0.506 | 0.7 | 0.482 | 0.721 | 0.926 | 0.568 |
| QELRRYLKSGV [MICA_Y194] | 0.764 | 0.384 | 0.465 | 0.577 | 0.804 | 0.787 | 0.659 | 0.582 | 0.553 | 0.566 | 0.626 | 0.544 | 0.957 | 0.875 | 0.652 | 0.765 |
| QGIIIYRAAYF [SLC25A4_Y187] | 1.01 | 0.642 | 0.515 | 0.544 | 1.39 | 1.91 | 1.28 | 0.688 | 0.574 | 1.13 | 0.773 | 0.541 | 0.639 | 0.767 | 1.32 | 0.945 |
| QKTGDYFDLFG [PTPN11_Y62_N58K_YF] | 1.02 | 0.854 | 0.583 | 0.639 | 17 | 1.04 | 0.815 | 20.1 | 0.971 | 7.57 | 0.434 | 1.04 | 0.442 | 6.35 | 2.17 | 11 |
| QKTGDYYDLYG [PTPN11_Y62_N58K] | 0.899 | 1.04 | 1.38 | 3.77 | 16.2 | 1.33 | 1.21 | 20.8 | 3.77 | 2.24 | 0.586 | 3.24 | 4.6 | 6.98 | 2.31 | 11 |
| QLATEYVFSDF [PANX1_Y10] | 0.895 | 0.679 | 0.511 | 0.837 | 1.21 | 1.85 | 0.907 | 0.716 | 0.762 | 1.57 | 0.424 | 0.617 | 0.703 | 0.62 | 0.996 | 0.615 |
| QLHREYCLSPR [HJURP_Y445] | 1.09 | 1.17 | 1 | 1.34 | 0.733 | 1.12 | 1.13 | 0.898 | 0.92 | 0.877 | 0.765 | 0.887 | 0.889 | 0.786 | 1.38 | 0.784 |
| QMRLKYSQSDL [SMC1A_Y714] | 0.871 | 0.703 | 0.597 | 0.481 | 0.453 | 0.863 | 0.632 | 0.437 | 0.251 | 0.611 | 0.365 | 0.296 | 0.369 | 0.476 | 0.704 | 0.335 |
| QNTGDYFDLFG [PTPN11_Y62_YF] | 0.795 | 0.689 | 0.409 | 1.56 | 23.3 | 1.49 | 1.48 | 26.8 | 1.26 | 11.6 | 0.753 | 3.03 | 1.3 | 20.4 | 8.28 | 23.3 |
